B1: HDV Ribozyme (parent)
chain: GGCCGGCAUGGUCCCAGCCUCCUCGCUGGCGCCGGCUGGGCAACAUUCCGAGGGGACCGUCCCCUCGGUAAUGGCGAAUGGGACCCA

Variants of: B1
Assay: self-cleavage, relative activity (ratio to wild type); higher = more cleavage; co-transcriptional

| Variant | self-cleavage |
| --- | --- |
| CGCCGGCAUGGUCCCAGCCUCCUCGCUGGCGCCGGCUGGGCGACAUUCCGAGGGGACCGUCCCCUCGGUAAUGGCGAAUGGGACCCA [G1C A42G] | 0 |
| CGCCGGCAUGGUCCCAGCCUCCUCGCUGGCGCCGGCUGGGCUACAUUCCGAGGGGACCGUCCCCUCGGUAAUGGCGAAUGGGACCCA [G1C A42U] | 0 |
| AGCCGGCAUGGUCCCAGCCUCCUCGCUGGCGCCGGCUGGGCAACAUUCCGAGGGGACCAUCCCCUCGGUAAUGGCGAAUGGGACCCA [G1A G59A] | 0.0573 |
| AGCCGGCAUGGUCCCAGCCUCCUCGCUGGCGCCGGCUGGGCAACAUUCCGAGGGGACCCUCCCCUCGGUAAUGGCGAAUGGGACCCA [G1A G59C] | 0.229 |
| AGCCGGCAUGGUCCCAGCCUCCUCGCUGGCGCCGGCUGGGCAACAUUCCGAGGGGACCUUCCCCUCGGUAAUGGCGAAUGGGACCCA [G1A G59U] | 0.214 |
| AGCCGGCAUGGUCCCAGCCUCCUCGCUGGCGCCGGCUGGCCAACAUUCCGAGGGGACCGUCCCCUCGGUAAUGGCGAAUGGGACCCA [G1A G40C] | 0.0437 |
| AGCCGGCAUGGUCCCAGCCUCCUCGCUGGCGCCGGCUGGACAACAUUCCGAGGGGACCGUCCCCUCGGUAAUGGCGAAUGGGACCCA [G1A G40A] | 0.119 |
| AGCCGGCAUGGUCCCAGCCUCCUCGCUGGCGCCGGCUGGUCAACAUUCCGAGGGGACCGUCCCCUCGGUAAUGGCGAAUGGGACCCA [G1A G40U] | 0.0615 |
| AGCCGGCAUGGUCCCAGCCUCCUCGCUGGCGCCGGCUGGGCAACAUUCCGAGGGGACCGUCCGCUCGGUAAUGGCGAAUGGGACCCA [G1A C63G] | 0.249 |
| AGCCGGCAUGGUCCCAGCCUCCUCGCUGGCGCCGGCUGGGCAACAUUCCGAGGGGACCGUCCCCUCGGUAAUGGCGAAUGGAACCCA [G1A G82A] | 0 |
| AGCCGGCAUGGUCCCAGCCUCCUCGCUGGCGCCGGCUGGGCAACAUUCCGAGGGGACCGUCCCCUCGGUAAUGGCGAAUGGUACCCA [G1A G82U] | 0.095 |
| AGCCGGCAUGGUCCCAGCCUCCUCGCUGGAGCCGGCUGGGCAACAUUCCGAGGGGACCGUCCCCUCGGUAAUGGCGAAUGGGACCCA [G1A C30A] | 0.0875 |
| AGCCGGCAUGGUCCAAGCCUCCUCGCUGGCGCCGGCUGGGCAACAUUCCGAGGGGACCGUCCCCUCGGUAAUGGCGAAUGGGACCCA [G1A C15A] | 0.0923 |
| AGCCGGCAUGGUCCUAGCCUCCUCGCUGGCGCCGGCUGGGCAACAUUCCGAGGGGACCGUCCCCUCGGUAAUGGCGAAUGGGACCCA [G1A C15U] | 0.0665 |
| AGCCGGCAUGGUCCCAGCCUCCUCGCUGGCGCCUGCUGGGCAACAUUCCGAGGGGACCGUCCCCUCGGUAAUGGCGAAUGGGACCCA [G1A G34U] | 0.095 |
| AGCCGGCAUGGUCCCAGCCUCCUCGCUGGCGCCGGCUGGGCAACAUUCCGAGGGGACCGUCCCCUCGGUAAUUGCGAAUGGGACCCA [G1A G73U] | 0.0545 |
| AGCCGGCAUGGUCCCAGCCUCCUCGCUGGCGCCGGCUGGGCAACAUUCCGAGGGGACCGUCCCCUCGUUAAUGGCGAAUGGGACCCA [G1A G68U] | 0.178 |
| AGCCGGUAUGGUCCCAGCCUCCUCGCUGGCGCCGGCUGGGCAACAUUCCGAGGGGACCGUCCCCUCGGUAAUGGCGAAUGGGACCCA [G1A C7U] | 0.0475 |
| AGCCGGCAUGGUCCCAGCCUCCUCGCUGGCGCCGGCUGGGCAACAUUCCGAGGGGACCGUCCCCUCGGUAAUGGAGAAUGGGACCCA [G1A C75A] | 0.161 |
| AGCCGGCAUGGUCCCAGCCUCCUCGCUGGCGCCGGCUGGGCAACAUUCCGAGGGGACCGUCCCCUCGGUAAUGGGGAAUGGGACCCA [G1A C75G] | 0.108 |
| AGCCGGCAUGGUCCCAGCCUCCUCGCUGGCGCCGGCUGGGCAACAUUCCGAGGGGACCGUCCCCUCGGUAAUGGCGAAUUGGACCCA [G1A G80U] | 0.0133 |
| AGCCGGCAUGGUCCCAGCCUCCUCGCUGGCGCCGGCUGGGCAACAUUCCGAGGGGACCGUCCCCUCGGAAAUGGCGAAUGGGACCCA [G1A U69A] | 0.145 |

| Variant | self-cleavage |
| --- | --- |
| AGCCGGCAUGGUCCCAGCCUCCUCGCUGGCGCCGGCUGGGCAACAUUCCGAGGGGACCGUCUCCUCGGUAAUGGCGAAUGGGACCCA [G1A C62U] | 0.0791 |
| AGCCGGCGUGGUCCCAGCCUCCUCGCUGGCGCCGGCUGGGCAACAUUCCGAGGGGACCGUCCCCUCGGUAAUGGCGAAUGGGACCCA [G1A A8G] | 0.166 |
| AGCCGGCAUGGUCCCAGCCUCCUCGCUGGCGCCGCCUGGGCAACAUUCCGAGGGGACCGUCCCCUCGGUAAUGGCGAAUGGGACCCA [G1A G35C] | 0.0723 |
| AGCCGGCAUGGUCCCAGCCUCCUCGCUGGCGCCGGCUGGGCAACAUUCCGAGUGGACCGUCCCCUCGGUAAUGGCGAAUGGGACCCA [G1A G53U] | 0.0386 |
| AGCCGGCAUGGUCCCAGCCUCCUCGCUGGCGCCGGCUGGGCAACAUUCCGAGCGGACCGUCCCCUCGGUAAUGGCGAAUGGGACCCA [G1A G53C] | 0 |
| AGCCGGCAUGGUCCCAGCCUCCUCGCUGGCGCCGGCUGGGCAACAUUCCGAGGGGACCGUCCCCUCGGUACUGGCGAAUGGGACCCA [G1A A71C] | 0.145 |
| AGCCGGCAUGGUCCCAGCCUCCUCGCUGGCGCCGGCUGGGCAACAUUCCGAGGGGACCGUCCCCUCGGUAUUGGCGAAUGGGACCCA [G1A A71U] | 0.256 |
| AGCCGGCAUGGUCCCAGCCUCCUCGCUGGCGCCGGCUGGGCUACAUUCCGAGGGGACCGUCCCCUCGGUAAUGGCGAAUGGGACCCA [G1A A42U] | 0.123 |
| AGCCGGCAUGGUCCCAGCCUCCUCGCUGGCGCCGGCUGGGCCACAUUCCGAGGGGACCGUCCCCUCGGUAAUGGCGAAUGGGACCCA [G1A A42C] | 0.0369 |
| AGCCGGCAUGGUCCCAGCCUCCACGCUGGCGCCGGCUGGGCAACAUUCCGAGGGGACCGUCCCCUCGGUAAUGGCGAAUGGGACCCA [G1A U23A] | 0.217 |
| CGCCGGCAUGGUCCCAGCCUCCUCGCUGGCGCCGGCUGGGCAACAUUCCGAGGGGACCGUCCCCUCGGUAAUGGCGAAUGGGACCCA [G1C] | 0.179 |
| AGCCGGCAUGGUCCCAGCCUCCUCGCUGGCGCCGGCUGGGCAACAUUCCGAGGGGACCGUCCCCUCGGUAAUGGCGAAUGGGACCCA [G1A] | 0.143 |
| AGCCGGCAUGGUCCCAGCCUCCUCGCUGGCGCCGGCUGGGCAACUUUCCGAGGGGACCGUCCCCUCGGUAAUGGCGAAUGGGACCCA [G1A A45U] | 0.208 |
| AGCCGGCAUGGUCCCAGCCUCCUCGCUGGCGCCGGCUGGGCAACAUUCCGAGGGGACCGCCCCCUCGGUAAUGGCGAAUGGGACCCA [G1A U60C] | 0.166 |
| AGCCGGCAUGGUCCCAGCCUCCUCGCUGGCGCCGGCUGGGCAACAUUCCGAGGGGACCGUCCCCACGGUAAUGGCGAAUGGGACCCA [G1A U65A] | 0.0692 |
| AGCCGGCAUGGUCCCAGCCUCCUCGCUGGCGCCGGCUGGGCAACAUUCCGAGGGGACCGUCCCCUGGGUAAUGGCGAAUGGGACCCA [G1A C66G] | 0.308 |
| AGCCAGCAUGGUCCCAGCCUCCUCGCUGGCGCCGGCUGGGCAACAUUCCGAGGGGACCGUCCCCUCGGUAAUGGCGAAUGGGACCCA [G1A G5A] | 0.0755 |
| AGCCUGCAUGGUCCCAGCCUCCUCGCUGGCGCCGGCUGGGCAACAUUCCGAGGGGACCGUCCCCUCGGUAAUGGCGAAUGGGACCCA [G1A G5U] | 0.101 |
| AGCCGGCAUGGUCCCAGCCUCGUCGCUGGCGCCGGCUGGGCAACAUUCCGAGGGGACCGUCCCCUCGGUAAUGGCGAAUGGGACCCA [G1A C22G] | 0.0978 |
| AGCCGGCAUGGUCCCAGCCUCCUCGCUGGCGCCGGCUGGGCAACAUUCCGAGGGGACCGUCCCCUCGGUAAUGGCGAAUGGGACACA [G1A C85A] | 0.0852 |
| AGCCGGCAUGGUCCCAGCCUCCUCGCUGUCGCCGGCUGGGCAACAUUCCGAGGGGACCGUCCCCUCGGUAAUGGCGAAUGGGACCCA [G1A G29U] | 0.0639 |
| AGCCGGCAUGGUCCCAGCCUCCUCGCUGGCGCCGGCUGUGCAACAUUCCGAGGGGACCGUCCCCUCGGUAAUGGCGAAUGGGACCCA [G1A G39U] | 0.135 |

| Variant | self-cleavage |
| --- | --- |
| AGCCGGCAUGGUCCCAGCCUCCUCGCUGGCGCCGGCUGGGCAACAUUCCGCGGGGACCGUCCCCUCGGUAAUGGCGAAUGGGACCCA [G1A A51C] | 0.0831 |
| AGCCGGCAUGGUCCCAGCCUCCUCGCUGGCGCCGGCUGGGCAACAUUCCGAGGGGACCGUCCCCUCGGUAAUGGCGAAUGGGACCGA [G1A C86G] | 0.185 |
| AGCCGGCAUGGUCCCAGUCUCCUCGCUGGCGCCGGCUGGGCAACAUUCCGAGGGGACCGUCCCCUCGGUAAUGGCGAAUGGGACCCA [G1A C18U] | 0.0475 |
| AGCCGGCAUGGUCCCAGGCUCCUCGCUGGCGCCGGCUGGGCAACAUUCCGAGGGGACCGUCCCCUCGGUAAUGGCGAAUGGGACCCA [G1A C18G] | 0 |
| AGCCGGCAUGGUCCCAUCCUCCUCGCUGGCGCCGGCUGGGCAACAUUCCGAGGGGACCGUCCCCUCGGUAAUGGCGAAUGGGACCCA [G1A G17U] | 0.0449 |
| AGCCGGCAUGGUCCCAGCCUCCUCGCUGGCGCCGGCUGGGCAACAUUCCGAGGGGACCGUCCCCUCUGUAAUGGCGAAUGGGACCCA [G1A G67U] | 0.297 |
| AACCGGCAUGGUCCCAGCCUCCUCGCUGGCGCCGGCUGGGCAACAUUCCGAGGGGACCGUCCCCUCGGUAAUGGCGAAUGGGACCCA [G1A G2A] | 0.457 |
| AGCCGGCAUGGUCCCAGCCUCCUCGCUGGCGCCGGCUGGGCAAAAUUCCGAGGGGACCGUCCCCUCGGUAAUGGCGAAUGGGACCCA [G1A C44A] | 0.0426 |
| AGCCGGCAUGGUCCCAGCCUCCUCGCUGGCGCCGGCUGGGCAACAUUCCGAGGGGACCGUCCCGUCGGUAAUGGCGAAUGGGACCCA [G1A C64G] | 0.095 |
| AGCCGGCAUGGUCCCAGCCUCCUCGCUGGCGCCGGCUGGGCAACAUUCCGAGGGGACGGUCCCCUCGGUAAUGGCGAAUGGGACCCA [G1A C58G] | 0.0665 |
| AGCCGGCAUGGUCCCAGCCUCCUCGCUGGCGCCGGCUGGGCAACAUUCCGAGGGGACUGUCCCCUCGGUAAUGGCGAAUGGGACCCA [G1A C58U] | 0.158 |
| AGCGGGCAUGGUCCCAGCCUCCUCGCUGGCGCCGGCUGGGCAACAUUCCGAGGGGACCGUCCCCUCGGUAAUGGCGAAUGGGACCCA [G1A C4G] | 0.123 |
| AGCUGGCAUGGUCCCAGCCUCCUCGCUGGCGCCGGCUGGGCAACAUUCCGAGGGGACCGUCCCCUCGGUAAUGGCGAAUGGGACCCA [G1A C4U] | 0.252 |
| AGCCGGCAUGGUCCCAGCCUCCUCGCUGGCGCCGGCUGGGCAACACUCCGAGGGGACCGUCCCCUCGGUAAUGGCGAAUGGGACCCA [G1A U46C] | 0.208 |
| AGCCGGCAUGGUCCCAGCCUCCUCGCUGGCGCCGGCGGGGCAACAUUCCGAGGGGACCGUCCCCUCGGUAAUGGCGAAUGGGACCCA [G1A U37G] | 0.158 |
| AGCCGGCAUGGUCCCAGCCUCCUCGCUGGCGCCGGCCGGGCAACAUUCCGAGGGGACCGUCCCCUCGGUAAUGGCGAAUGGGACCCA [G1A U37C] | 0.217 |
| AGCCGGCAUGGUCCCAGCCUCCUCGCUGGCGCCGGCUGGGCAACAUUACGAGGGGACCGUCCCCUCGGUAAUGGCGAAUGGGACCCA [G1A C48A] | 0 |
| AGCCGGCAUGGUCCCAGCCUCCUCGCUGGCGCCGGCUAGGCAACAUUCCGAGGGGACCGUCCCCUCGGUAAUGGCGAAUGGGACCCA [G1A G38A] | 0.0332 |
| AGCCGGCAUGGUCCCAGCCUCCUCGCUGGCGCCGGCUUGGCAACAUUCCGAGGGGACCGUCCCCUCGGUAAUGGCGAAUGGGACCCA [G1A G38U] | 0.0845 |
| AGCCGGCAUGGUCCCAGCGUCCUCGCUGGCGCCGGCUGGGCAACAUUCCGAGGGGACCGUCCCCUCGGUAAUGGCGAAUGGGACCCA [G1A C19G] | 0.0875 |

Source: the RNAGym collection of RNA variant scans (doi:10.7554/elife.80360)
